According to patent publication US20020164702A1:

Target: endogenous mouse MuSK on C2C12 myotubes or primary mouse myotubes (mouse) (UniProt Q61006)
Assay: cell-based or functional assay

Chain of UniProt Q61006 (Q61006 22-868): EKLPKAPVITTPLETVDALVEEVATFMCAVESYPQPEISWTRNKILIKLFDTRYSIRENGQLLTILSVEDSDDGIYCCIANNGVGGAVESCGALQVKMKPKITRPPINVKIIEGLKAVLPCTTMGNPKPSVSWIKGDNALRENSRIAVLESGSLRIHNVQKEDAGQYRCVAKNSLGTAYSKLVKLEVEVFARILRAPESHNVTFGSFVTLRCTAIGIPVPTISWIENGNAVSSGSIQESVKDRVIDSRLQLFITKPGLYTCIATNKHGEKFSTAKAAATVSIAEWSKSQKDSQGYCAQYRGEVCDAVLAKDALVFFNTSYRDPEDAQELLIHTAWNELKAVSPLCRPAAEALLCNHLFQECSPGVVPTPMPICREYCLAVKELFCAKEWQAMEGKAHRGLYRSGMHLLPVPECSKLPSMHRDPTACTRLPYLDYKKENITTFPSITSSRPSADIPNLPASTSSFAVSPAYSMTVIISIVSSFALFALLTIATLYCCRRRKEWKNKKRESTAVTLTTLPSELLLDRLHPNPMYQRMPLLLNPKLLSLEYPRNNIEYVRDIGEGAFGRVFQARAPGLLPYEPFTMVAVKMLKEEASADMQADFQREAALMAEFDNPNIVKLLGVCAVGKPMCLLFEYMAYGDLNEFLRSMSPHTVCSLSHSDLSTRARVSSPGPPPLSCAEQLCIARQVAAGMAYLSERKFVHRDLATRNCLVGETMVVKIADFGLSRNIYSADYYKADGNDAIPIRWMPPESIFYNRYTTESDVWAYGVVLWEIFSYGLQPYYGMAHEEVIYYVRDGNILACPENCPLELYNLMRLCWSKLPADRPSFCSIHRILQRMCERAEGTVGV

tyrosine phosphorylation of MuSK in myotubes, dose: 1 nM
Substance: agrin (isoform not stated at that place) (ligand)
